According to publication PMC2952662:

Target: N-terminally His6-tagged Akt1 PH domain S2-S128 construct (human)
Assay: SPR

Kd: 1.4 µM | koff: 0.000116 s⁻¹
Substance: Akt inhibitor VI, a 15 residue peptide derived from the oncogene TCL1
